Measurements as given in PMC4161437, “Structural Correlates of Rotavirus Cell Entry” (PLoS Pathogens, 2014).

Key:
[1] = molecular target: T1, rhesus rotavirus (RRV) VP4 hydrophobic-loop mutant V391D, recombinant (rhesus rotavirus (RRV; G3 serotype), UniProt P12473 1-776, V391D); assay: co-sedimentation; recoating: VP4 added to purified DLPs in at least 5-fold excess at pH 5.2 (sodium acetate), 1.5 h at room temperature; then VP7 in at least 3-fold molar excess with calcium, 30 min; recoated particles separated from excess components by cesium chloride gradient centrifugation; SDS-PAGE and fluorescence imaging of the purified particles; conditions: both partners purified
T1 construct: VP4 of rhesus rotavirus (RRV; G3 serotype) with V391D in a hydrophobic loop of VP5*; also called V391D VP4; VP4 fusion-loop mutant; source: baculovirus-infected insect cells, purified (AmSO4 precipitation, Phenyl HP, HiTrap Q, S200)

[2] = molecular target: T2, rhesus rotavirus (RRV) outer-layer protein VP4, recombinant, wild type (rhesus rotavirus (RRV; G3 serotype), UniProt P12473 1-776, amine-specific Atto dye in some preparations (dye combinations varied)); assay: as above; conditions: both partners purified
T2 construct: VP4, outer capsid spike protein of rhesus rotavirus (RRV; G3 serotype); recombinant, not cleaved by trypsin when added to DLPs; Recoated particles were treated with trypsin (cleavage to VP8* and VP5*) only after recoating; also called WT VP4; VP4 wt; source: baculovirus-infected insect cells, purified (AmSO4 precipitation, Phenyl HP, HiTrap Q, S200)

B1: rhesus rotavirus (RRV) outer-layer glycoprotein VP7, recombinant, wild type (natural protein)
chain: QNYGINLPITGSMDTAYANSTQEETFLTSTLCLYYPTEAATEINDNSWKDTLSQLFLTKGWPTGSVYFKEYTDIASFSVDPQLYCDYNVVLMKYDATLQLDMSELADLILNEWLCNPMDITLYYYQQTDEANKWISMGSSCTIKVCPLNTQTLGIGCLTTDTATFEEVATAEKLVITDVVDGVNHKLDVTTATCTIRNCKKLGPRENVAVIQVGGSDVLDITADPTTAPQTERMMRINWKKWWQVFYTVVDYVNQIIQAMSKRSRSLNSAAFYYRI
modifications: amine-specific Atto dye in some preparations (dye combinations varied)
notes: VP7, outer capsid glycoprotein of rhesus rotavirus (RRV; G3 serotype); Ca2+-stabilized trimer; also called WT VP7; VP7 wt
B1: binds [1]; binds [2].
